{"source": "patent US20200385434A1", "about": "(VOLUTION IMMUNO PHARMACEUTICALS, published 2020)", "binders": {"B1": {"name": "wild type Coversin (Ornithodoros moubata) (other)", "chain": "DSESDCTGSEPVDAFQAFSEGKEAYVLVRSTDPKARDCLKGEPAGEKQDNTLPVMMTFKNGTDWASTDWTFTLDGAKVTATLGNLTQNREVVYDSQSHHCHVDKVEKEVPDYEMWMLDAGGLEVEVECCRQKLEELASGRNQMYPHLKDC", "notes": "also called Coversin wild type; unmodified Coversin polypeptide"}}, "target": "T1, human complement component C5 (human, UniProt P01031 19-673; P01031 678-1676)", "T1 construct": "Purified human C5 was amine-coupled to a CM3 sensor chip for SPR; In the CH50 assay the C5 is the one present in pooled normal human serum; Native C5 is a disulphide-linked two-chain protein made from one precursor; also called human C5", "T1 sequence (P01031 19-673 limits assumed, chain 1 of 2)": "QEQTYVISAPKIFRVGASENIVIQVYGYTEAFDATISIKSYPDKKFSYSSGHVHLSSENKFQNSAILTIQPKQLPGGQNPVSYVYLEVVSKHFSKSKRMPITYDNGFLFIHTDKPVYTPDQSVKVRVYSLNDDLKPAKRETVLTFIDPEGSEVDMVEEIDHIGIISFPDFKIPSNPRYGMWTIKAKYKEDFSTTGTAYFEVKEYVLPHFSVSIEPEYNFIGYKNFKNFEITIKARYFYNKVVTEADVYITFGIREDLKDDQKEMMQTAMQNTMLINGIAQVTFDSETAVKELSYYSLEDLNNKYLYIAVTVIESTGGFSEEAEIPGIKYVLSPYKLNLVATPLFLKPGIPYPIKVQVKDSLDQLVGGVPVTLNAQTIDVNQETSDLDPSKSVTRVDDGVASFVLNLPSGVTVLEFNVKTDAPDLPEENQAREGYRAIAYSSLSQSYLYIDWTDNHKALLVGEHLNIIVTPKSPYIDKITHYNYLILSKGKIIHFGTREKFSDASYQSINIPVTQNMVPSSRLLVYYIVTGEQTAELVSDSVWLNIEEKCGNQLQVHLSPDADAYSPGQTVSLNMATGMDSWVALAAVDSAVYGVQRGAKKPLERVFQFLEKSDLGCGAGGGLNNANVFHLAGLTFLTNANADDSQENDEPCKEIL", "T1 sequence (P01031 678-1676 limits assumed, chain 2 of 2)": "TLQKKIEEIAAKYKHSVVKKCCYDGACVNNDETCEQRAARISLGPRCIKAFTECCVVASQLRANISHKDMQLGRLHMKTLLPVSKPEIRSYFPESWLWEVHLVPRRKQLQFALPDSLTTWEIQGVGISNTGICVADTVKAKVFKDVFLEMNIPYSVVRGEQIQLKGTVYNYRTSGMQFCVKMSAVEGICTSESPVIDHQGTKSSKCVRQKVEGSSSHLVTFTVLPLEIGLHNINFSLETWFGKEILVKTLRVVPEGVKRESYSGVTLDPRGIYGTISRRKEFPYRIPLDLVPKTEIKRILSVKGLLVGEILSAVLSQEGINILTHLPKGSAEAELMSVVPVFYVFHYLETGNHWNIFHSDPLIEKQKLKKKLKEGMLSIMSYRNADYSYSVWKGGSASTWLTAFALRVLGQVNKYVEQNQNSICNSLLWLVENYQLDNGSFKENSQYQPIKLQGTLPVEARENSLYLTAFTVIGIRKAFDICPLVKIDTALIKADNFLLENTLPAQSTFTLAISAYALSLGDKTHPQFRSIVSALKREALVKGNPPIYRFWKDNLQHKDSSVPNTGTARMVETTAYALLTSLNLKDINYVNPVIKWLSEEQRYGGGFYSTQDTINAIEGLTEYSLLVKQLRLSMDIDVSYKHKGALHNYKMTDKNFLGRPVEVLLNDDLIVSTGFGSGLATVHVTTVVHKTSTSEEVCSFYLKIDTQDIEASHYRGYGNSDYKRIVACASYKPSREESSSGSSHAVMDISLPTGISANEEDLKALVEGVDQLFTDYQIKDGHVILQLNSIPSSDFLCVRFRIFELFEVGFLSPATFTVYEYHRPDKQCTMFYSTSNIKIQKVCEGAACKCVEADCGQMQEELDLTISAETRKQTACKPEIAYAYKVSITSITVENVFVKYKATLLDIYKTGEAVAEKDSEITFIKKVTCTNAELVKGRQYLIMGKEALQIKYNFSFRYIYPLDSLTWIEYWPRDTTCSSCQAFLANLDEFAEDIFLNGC", "test": "SPR (BIAcore 2000, 25 C), human C5 amine-coupled to a CM3 chip, Coversin injected at 0-96 nM, global Langmuir fit", "data": [{"binder": "B1", "values": [{"measurement": "Kd", "value": 1.45, "unit": "nM"}]}]}
